Values quoted from earlier work in publication PMC2846628.
pKd: −log10 of the molar value.

Biological target: Cdc25 phosphopeptide (Homo sapiens)
Assay: NMR titration

- pKd: 5.10
Substance: Pin1 1-163 (from UniProt Q13526)
